In the supplement of paper PMC11865577:

Tested on: TO-N3-2 (biotin conjugate)
Experiment: pull-down binding Z-score (relative to library population); higher = stronger binding
Conditions: RNA library: Library-2
Summary of the method: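 To score binding, a beads-only signal was subtracted, barcoded replicate probes were averaged with the highest and lowest dropped, and the value was converted to a Z-score using the library mean and standard deviation. The input was 1 μg of Cy5- or Cy3-end-labelled RNA library, heat-folded in phosphate/NaCl/KCl buffer and mixed for 60 min at 25 °C with streptavidin beads carrying 100 pmol of biotin-conjugated small molecule. Bound RNA was eluted in hot SDS and hybridised to a DNA barcode microarray at 55.5 °C for 20 h.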

| Sequence | pull-down binding Z-score |
| --- | --- |
| CUAAUAACACUAAAGGUUCAUUGCCUAUUAAUGUUAUAG | -0.904 |
| CUACAAAGCAACCAUGAUCUGUAUUGUCAAGUCCAUGGUAAUGCACAUGUAG | 0.374 |
| CUACACUAGUGCCACAAGAGCACUAUGUUAG | 0.417 |
| CUAGGUUUUUCUAUGUACUUGG | -0.376 |
| CUAGUUGUGAUGCAAUCAUGACUAG | -1.39 |
| CUAUACAUUCUUUAAGAGUUUGUGUAG | -1.28 |
| CUAUACUGUUACUAGAUCAGGCAUUAGUGUCUGAUGUUGGUGAUAGUGCGG | -0.582 |
| CUAUAGUAGCUGGUGGUAUUGUAGCUAUCGUAG [SHAPE_invitro_SARS-CoV-2_Motif_182] | 1.04 |
| CUAUCAGGCCGGUAG [DMSMaPseq_invitro_SARS-CoV-2_Motif_406] | -0.0779 |
| CUAUUCAAACAAUUGUUGAGGUUCAACCUCAAUUAGAGAUGGAACUUACACCAGUUGUUCAGACUAUUGAAGUGAAUAGUUUUAG [SHAPE_invivo_SARS-CoV-2_Multi_36_ComplexLevel_1] | -0.461 |
| CUCAAACCCGUCCUUGAUUGGCUUGAAGAGAAGUUUAAGGAAGGUGUAGAG [DMSMaPseq_invitro_SARS-CoV-2_Motif_41] | -0.0884 |
| CUCAGAGUAGAAAUUUACAAGAAUUUAAACCCAGGAG [DMSMaPseq_invitro_SARS-CoV-2_Motif_359] | -0.531 |
| CUCAGUCCAAGAUGGUAUUUCUACUACCUAGGAACUGGG [SHAPE_invivo_SARS-CoV-2_Motif_544] | -0.627 |
| CUCCAAAAAGAG | -1.2 |
| CUCCAGCACGGAG [IAV_invivo_PB2_1_Motif_21+IAV_invivo_PB2_1_Motif_21] | -1.17 |
| CUCCAGGAGGGG [IAV_invivo_PB2_1_Motif_10+IAV_invivo_PB2_1_Motif_10] | -0.309 |
| CUCCUUUGAUGGUUGCAUACAUGUUGGAG [IAV_invivo_PB2_1_Motif_8+IAV_invivo_PB2_1_Motif_8] | -0.427 |
| CUCGUCUAUCUUCUGCAGGCUGCUUACGGUUUCGUCCGUGUUGCAGCCGAUCAUCAGCACAUCUAGGUUUCGUCCGGGUGUGACCGAAAGGUAAGAUGGAGAG | 0.408 |
| CUCGUCUAUCUUCUGCAGGCUGCUUACGGUUUCGUCCGUGUUGCAGCCGAUCAUCAGCACAUCUAGGUUUUGUCCGGGUGUGACCGAAAGGUAAGAUGGAGAG | -0.32 |
| CUCUAUGACAAACUUGUUUCAAGCUUUUUGGAAAUGAAGAGUGAAAAGCAAGUUGAACAAAAGAUCGCUGAG | -0.00802 |
| CUCUCAUCGAUCUCCAAGAACUUGGAAAGUAUGAGCAG [SHAPE_invitro_SARS-CoV-2_Motif_456] | 0.281 |
| CUCUCAUUUUGUUAACUUAGACAACCUGAGAG | -1.2 |

| Sequence | pull-down binding Z-score |
| --- | --- |
| CUCUGGAACACUUUUACAAGACUUCAGAG [SHAPE_invivo_SARS-CoV-2_Motif_367] | -0.513 |
| CUCUUGAGUGCAUUAAAGACCUUCUAGCACGUGCUGGUAAAGCUUCAUGCACUUUGUCCGAACAACUGGACUUUAUUGACACUAAGAG [SHAPE_invitro_SARS-CoV-2_Multi_69_ComplexLevel_1] | 0.585 |
| CUCUUGUAAUGUAAACAGAUUUAAUGUUGCUAUUACCAGAG | -0.0897 |
| CUGAAAAAUGGGAAUCUGGAGUAAAAGACUGUGUUGUAUUACACAGUUACUUCACUUCAGACUAUUACCAG | -0.48 |
| CUGACAAAGUUUUCAG | -0.543 |
| CUGACUUAACAAAGCCUUACAUUAAGUGGGAUUUGUUAAAAUAUGACUUCACGGAAGAGAGGUUAAAACUCUUUGACCGUUAUUUUAAAUAUUGG | -0.193 |
| CUGAUCCUAGUUUUCUGGGUAG [SHAPE_invivo_SARS-CoV-2_Motif_108] | -0.359 |
| CUGCACUGUUAGCGGGUACAAUCACUUCUGGUUGGACCUUUGGUGCAG [SHAPE_invitro_SARS-CoV-2_Motif_437] | -0.738 |
| CUGCAGAUGCAG [IAV_invivo_HA_4_Motif_2+IAV_invivo_HA_4_Motif_2] | -1.28 |
| CUGCCUAUAUGGAAG | -0.645 |
| CUGCUUUUGGCUUAGUUGCAG | -0.231 |
| CUGGAAUUGCCGUUUUAG [SHAPE_invivo_SARS-CoV-2_Motif_210] | -0.115 |
| CUGGACUCUAAAUAGAAACCAACCUGCUGCAACAGCAUUGGCCAACACAAUAGAAGUGUUCAGAUCAAAUGGCCUCACGGCCAAUGAGUCUGG | 0.269 |
| CUGGCAGUAACCAG [SHAPE_invivo_SARS-CoV-2_Motif_538] | -0.733 |
| CUGGGAAACUGUUAAAAUUCAGUGGUCCCAG [IAV_invivo_PB2_1_Motif_27+IAV_invivo_PB2_1_Motif_27] | -0.97 |
| CUGGGCCAUAAGGACCAG [IAV_invivo_NP_5_Motif_20+IAV_invivo_NP_5_Motif_20] | -0.786 |
| CUGGGGGCAAUCAGUUUCUGG [IAV_invivo_HA_4_Motif_20+IAV_invivo_HA_4_Motif_20] | -0.107 |
| CUGGUCCAUGCUCAUACCCAAGCAGAAAGUGGCAGGCCCUCUUUGUAUCAGAAUGGACCAG [IAV_invivo_NS1_NEP_8_Motif_8+IAV_invivo_NS1_NEP_8_Motif_8] | 0.562 |
| CUGUAGCUGCAUUUCACCAAGAAUGUAGUUUACAG [DMSMaPseq_invitro_SARS-CoV-2_Motif_500] | -0.632 |
| CUGUCACUAAG | -0.584 |
| CUGUCAUGGAAGCAAGUACUGGCAG [IAV_invivo_PA_3_Motif_16+IAV_invivo_PA_3_Motif_16] | 0.323 |
| CUGUCCAAGACAUGUGAUCUGCACCUCUGAAGACAUGCUUAACCCUAAUUAUGAAGAUUUACUCAUUCGUAAGUCUAAUCAUAAUUUCUUGGUACAG | -0.0124 |

| Sequence | pull-down binding Z-score |
| --- | --- |
| CUGUGGGUUUUACACUUAAAAACACAG [DMSMaPseq_invitro_SARS-CoV-2_Motif_239] | -0.754 |
| CUGUUAAUGUAGCAUUUGAGCUUUGGGCUAAGCGCAACAUUAAACCAG | 0.335 |
| CUGUUCCACCAUUGAAGAGCUCAG [IAV_invivo_PB1_2_Motif_38+IAV_invivo_PB1_2_Motif_38] | 0.457 |
| CUGUUGAUUCAUCACAG | -0.421 |
| CUGUUGGUACCAAUUUACCUUUACAGCUAGGUUUUUCUACAGGUGUUAACCUAGUUGCUGUACCUACAG | -1.02 |
| CUGUUUGGAUGACAG | -1.01 |
| CUGUUUUUCAG | -1.53 |
| CUUACUGACAAUGUAUACAUUAAAAAUGCAGACAUUGUGGAAG [DMSMaPseq_invitro_SARS-CoV-2_Motif_59] | -0.455 |
| CUUAGCUGUCUUUGAUAAAAAUCUCUAUGACAAACUUGUUUCAAGCUUUUUGGAAAUGAAGAGUGAAAAGCAAGUUGAACAAAAGAUCGCUGAG [SHAPE_invivo_SARS-CoV-2_Motif_73] | 0.552 |
| CUUAGGGACAACCUUGAACCUGGG [IAV_invivo_PA_3_Motif_29+IAV_invivo_PA_3_Motif_29] | 0.0467 |
| CUUAGUUUUAAG [DMSMaPseq_invitro_SARS-CoV-2_Motif_263] | -1.26 |
| CUUAUGUUGGUUGCCAUAACAAGUGUGCCUAUUGGGUUCCACGUGCUAGCGCUAACAUAGG | -0.75 |
| CUUCACAUAUGUAUUGUUCUUUUUACCCUCCAGAUGAGGAUGAAGAAGAAGGUGAUUGUGAAG | -1.19 |
| CUUCAUUAAAAGAAUUACUGCAAAAUGGUAUGAAUGGACGUACCAUAUUGGGUAGUGCUUUAUUAGAAG | -0.219 |
| CUUCCGAGUCAUAGGAAACUAUGACAUACAGAUCAACAGGGGCUCGCUUGAGCCCCCCAGCCAGUCGGAGG [mMTR1] | -0.704 |
| CUUCUGCUGCUCUUCAACCUGAAGAAGAGCAAGAAGAAG | -0.79 |
| CUUCUUGAAAUACUCCAAAAAGAGAAAGUCAACAUCAAUAUUGUUGGUGACUUUAAACUUAAUGAAG | -0.596 |
| CUUCUUGCAUGUGACUUAUGUCCCUGCACAAGAAAAG [SHAPE_invitro_SARS-CoV-2_Motif_449] | -0.177 |
| CUUGAACAAUGGAACCUAGUAAUAGGUUUCCUAUUCCUUACAUGGAUUUGUCUUCUACAAUUUGCCUAUGCCAACAGG | -0.374 |
| CUUGAACAAUGGAACCUAGUAAUAGGUUUCCUAUUCCUUACAUGGAUUUGUCUUCUACAAUUUGCCUAUGCCAACAGGAAUAGGUUUUUGUAUAUAAUUAAG | -1.14 |
| CUUGAUGAUUUUGUUGAAAUAAUAAAAUCCCAAG | -0.743 |
